From article PMC7699580, “Transmembrane Polar Relay Drives the Allosteric Regulation for ABCG5/G8 Sterol Transporter” (International Journal of Molecular Sciences, 2020) come the findings set out here.

The chains are these.
B1: ABCG5/G8 (Homo sapiens) (protein)
chain 1: MGDLSSLTPGGSMGLQVNRGSQSSLEGAPATAPEPHSLGILHASYSVSHRVRPWWDITSCRQQWTRQILKDVSLYVESGQIMCILGSSGSGKTTLLDAMSGRLGRAGTFLGEVYVNGRALRREQFQDCFSYVLQSDTLLSSLTVRETLHYTALLAIRRGNPGSFQKKVEAVMAELSLSHVADRLIGNYSLGGISTGERRRVSIAAQLLQDPKVMLFDEPTTGLDCMTANQIVVLLVELARRNRIVVLTIHQPRSELFQLFDKIAILSFGELIFCGTPAEMLDFFNDCGYPCPEHSNPFDFYMDLTSVDTQSKEREIETSKRVQMIESAYKKSAICHKTLKNIERMKHLKTLPMVPFKTKDSPGVFSKLGVLLRRVTRNLVRNKLAVITRLLQNLIMGLFLLFFVLRVRSNVLKGAIQDRVGLLYQFVGATPYTGMLNAVNLFPVLRAVSDQESQDGLYQKWQMMLAYALHVLPFSVVATMIFSSVCYWTLGLHPEVARFGYFSAALLAPHLIGEFLTLVLLGIVQNPNIVNSVVALLSIAGVLVGSGFLRNIQEMPIPFKIISYFTFQKYCSEILVVNEFYGLNFTCGSSNVSVTTNPMCAFTQGIQFIEKTCPGATSRFTMNFLILYSFIPALVILGIVVFKIRDHLISR
chain 2: MAGKAAEERGLPKGATPQDTSGLQDRLFSSESDNSLYFTYSGQPNTLEVRDLNYQVDLASQVPWFEQLAQFKMPWTSPSCQNSCELGIQNLSFKVRSGQMLAIIGSSGCGRASLLDVITGRGHGGKIKSGQIWINGQPSSPQLVRKCVAHVRQHNQLLPNLTVRETLAFIAQMRLPRTFSQAQRDKRVEDVIAELRLRQCADTRVGNMYVRGLSGGERRRVSIGVQLLWNPGILILDEPTSGLDSFTAHNLVKTLSRLAKGNRLVLISLHQPRSDIFRLFDLVLLMTSGTPIYLGAAQHMVQYFTAIGYPCPRYSNPADFYVDLTSIDRRSREQELATREKAQSLAALFLEKVRDLDDFLWKAETKDLDEDTCVESSVTPLDTNCLPSPTKMPGAVQQFTTLIRRQISNDFRDLPTLLIHGAEACLMSMTIGFLYFGHGSIQLSFMDTAALLFMIGALIPFNVILDVISKCYSERAMLYYELEDGLYTTGPYFFAKILGELPEHCAYIIIYGMPTYWLANLRPGLQPFLLHFLLVWLVVFCCRIMALAAAALLPTFHMASFFSNALYNSFYLAGGFMINLSSLWTVPAWISKVSFLRWCFEGLMKIQFSRRTYKMPLGNLTIAVSGDKILSVMELDSYPLYAIYLIVIGLSGGFMVLYYVSLRFIKQKPSQDW
notes: full-length heterodimer; ABCG5 C-terminal His6GlyHis6, ABCG8 C-terminal 3C site and CBP (CBP tag and N-glycans kept); Pichia pastoris KM71H; DDM-purified
B2: ABCG5/G8 (Homo sapiens; Q9H222:E146Q) (protein)
chain 1: MGDLSSLTPGGSMGLQVNRGSQSSLEGAPATAPEPHSLGILHASYSVSHRVRPWWDITSCRQQWTRQILKDVSLYVESGQIMCILGSSGSGKTTLLDAMSGRLGRAGTFLGEVYVNGRALRREQFQDCFSYVLQSDTLLSSLTVRQTLHYTALLAIRRGNPGSFQKKVEAVMAELSLSHVADRLIGNYSLGGISTGERRRVSIAAQLLQDPKVMLFDEPTTGLDCMTANQIVVLLVELARRNRIVVLTIHQPRSELFQLFDKIAILSFGELIFCGTPAEMLDFFNDCGYPCPEHSNPFDFYMDLTSVDTQSKEREIETSKRVQMIESAYKKSAICHKTLKNIERMKHLKTLPMVPFKTKDSPGVFSKLGVLLRRVTRNLVRNKLAVITRLLQNLIMGLFLLFFVLRVRSNVLKGAIQDRVGLLYQFVGATPYTGMLNAVNLFPVLRAVSDQESQDGLYQKWQMMLAYALHVLPFSVVATMIFSSVCYWTLGLHPEVARFGYFSAALLAPHLIGEFLTLVLLGIVQNPNIVNSVVALLSIAGVLVGSGFLRNIQEMPIPFKIISYFTFQKYCSEILVVNEFYGLNFTCGSSNVSVTTNPMCAFTQGIQFIEKTCPGATSRFTMNFLILYSFIPALVILGIVVFKIRDHLISR
chain 2: MAGKAAEERGLPKGATPQDTSGLQDRLFSSESDNSLYFTYSGQPNTLEVRDLNYQVDLASQVPWFEQLAQFKMPWTSPSCQNSCELGIQNLSFKVRSGQMLAIIGSSGCGRASLLDVITGRGHGGKIKSGQIWINGQPSSPQLVRKCVAHVRQHNQLLPNLTVRETLAFIAQMRLPRTFSQAQRDKRVEDVIAELRLRQCADTRVGNMYVRGLSGGERRRVSIGVQLLWNPGILILDEPTSGLDSFTAHNLVKTLSRLAKGNRLVLISLHQPRSDIFRLFDLVLLMTSGTPIYLGAAQHMVQYFTAIGYPCPRYSNPADFYVDLTSIDRRSREQELATREKAQSLAALFLEKVRDLDDFLWKAETKDLDEDTCVESSVTPLDTNCLPSPTKMPGAVQQFTTLIRRQISNDFRDLPTLLIHGAEACLMSMTIGFLYFGHGSIQLSFMDTAALLFMIGALIPFNVILDVISKCYSERAMLYYELEDGLYTTGPYFFAKILGELPEHCAYIIIYGMPTYWLANLRPGLQPFLLHFLLVWLVVFCCRIMALAAAALLPTFHMASFFSNALYNSFYLAGGFMINLSSLWTVPAWISKVSFLRWCFEGLMKIQFSRRTYKMPLGNLTIAVSGDKILSVMELDSYPLYAIYLIVIGLSGGFMVLYYVSLRFIKQKPSQDW
notes: as for B1
B3: ABCG5/G8 (Homo sapiens; Q9H221:R543S) (protein)
chain 1: MGDLSSLTPGGSMGLQVNRGSQSSLEGAPATAPEPHSLGILHASYSVSHRVRPWWDITSCRQQWTRQILKDVSLYVESGQIMCILGSSGSGKTTLLDAMSGRLGRAGTFLGEVYVNGRALRREQFQDCFSYVLQSDTLLSSLTVRETLHYTALLAIRRGNPGSFQKKVEAVMAELSLSHVADRLIGNYSLGGISTGERRRVSIAAQLLQDPKVMLFDEPTTGLDCMTANQIVVLLVELARRNRIVVLTIHQPRSELFQLFDKIAILSFGELIFCGTPAEMLDFFNDCGYPCPEHSNPFDFYMDLTSVDTQSKEREIETSKRVQMIESAYKKSAICHKTLKNIERMKHLKTLPMVPFKTKDSPGVFSKLGVLLRRVTRNLVRNKLAVITRLLQNLIMGLFLLFFVLRVRSNVLKGAIQDRVGLLYQFVGATPYTGMLNAVNLFPVLRAVSDQESQDGLYQKWQMMLAYALHVLPFSVVATMIFSSVCYWTLGLHPEVARFGYFSAALLAPHLIGEFLTLVLLGIVQNPNIVNSVVALLSIAGVLVGSGFLRNIQEMPIPFKIISYFTFQKYCSEILVVNEFYGLNFTCGSSNVSVTTNPMCAFTQGIQFIEKTCPGATSRFTMNFLILYSFIPALVILGIVVFKIRDHLISR
chain 2: MAGKAAEERGLPKGATPQDTSGLQDRLFSSESDNSLYFTYSGQPNTLEVRDLNYQVDLASQVPWFEQLAQFKMPWTSPSCQNSCELGIQNLSFKVRSGQMLAIIGSSGCGRASLLDVITGRGHGGKIKSGQIWINGQPSSPQLVRKCVAHVRQHNQLLPNLTVRETLAFIAQMRLPRTFSQAQRDKRVEDVIAELRLRQCADTRVGNMYVRGLSGGERRRVSIGVQLLWNPGILILDEPTSGLDSFTAHNLVKTLSRLAKGNRLVLISLHQPRSDIFRLFDLVLLMTSGTPIYLGAAQHMVQYFTAIGYPCPRYSNPADFYVDLTSIDRRSREQELATREKAQSLAALFLEKVRDLDDFLWKAETKDLDEDTCVESSVTPLDTNCLPSPTKMPGAVQQFTTLIRRQISNDFRDLPTLLIHGAEACLMSMTIGFLYFGHGSIQLSFMDTAALLFMIGALIPFNVILDVISKCYSERAMLYYELEDGLYTTGPYFFAKILGELPEHCAYIIIYGMPTYWLANLRPGLQPFLLHFLLVWLVVFCCSIMALAAAALLPTFHMASFFSNALYNSFYLAGGFMINLSSLWTVPAWISKVSFLRWCFEGLMKIQFSRRTYKMPLGNLTIAVSGDKILSVMELDSYPLYAIYLIVIGLSGGFMVLYYVSLRFIKQKPSQDW
notes: as for B1
B4: ABCG5/G8 (Homo sapiens; Q9H222:A540F) (protein)
chain 1: MGDLSSLTPGGSMGLQVNRGSQSSLEGAPATAPEPHSLGILHASYSVSHRVRPWWDITSCRQQWTRQILKDVSLYVESGQIMCILGSSGSGKTTLLDAMSGRLGRAGTFLGEVYVNGRALRREQFQDCFSYVLQSDTLLSSLTVRETLHYTALLAIRRGNPGSFQKKVEAVMAELSLSHVADRLIGNYSLGGISTGERRRVSIAAQLLQDPKVMLFDEPTTGLDCMTANQIVVLLVELARRNRIVVLTIHQPRSELFQLFDKIAILSFGELIFCGTPAEMLDFFNDCGYPCPEHSNPFDFYMDLTSVDTQSKEREIETSKRVQMIESAYKKSAICHKTLKNIERMKHLKTLPMVPFKTKDSPGVFSKLGVLLRRVTRNLVRNKLAVITRLLQNLIMGLFLLFFVLRVRSNVLKGAIQDRVGLLYQFVGATPYTGMLNAVNLFPVLRAVSDQESQDGLYQKWQMMLAYALHVLPFSVVATMIFSSVCYWTLGLHPEVARFGYFSAALLAPHLIGEFLTLVLLGIVQNPNIVNSVVALLSIFGVLVGSGFLRNIQEMPIPFKIISYFTFQKYCSEILVVNEFYGLNFTCGSSNVSVTTNPMCAFTQGIQFIEKTCPGATSRFTMNFLILYSFIPALVILGIVVFKIRDHLISR
chain 2: MAGKAAEERGLPKGATPQDTSGLQDRLFSSESDNSLYFTYSGQPNTLEVRDLNYQVDLASQVPWFEQLAQFKMPWTSPSCQNSCELGIQNLSFKVRSGQMLAIIGSSGCGRASLLDVITGRGHGGKIKSGQIWINGQPSSPQLVRKCVAHVRQHNQLLPNLTVRETLAFIAQMRLPRTFSQAQRDKRVEDVIAELRLRQCADTRVGNMYVRGLSGGERRRVSIGVQLLWNPGILILDEPTSGLDSFTAHNLVKTLSRLAKGNRLVLISLHQPRSDIFRLFDLVLLMTSGTPIYLGAAQHMVQYFTAIGYPCPRYSNPADFYVDLTSIDRRSREQELATREKAQSLAALFLEKVRDLDDFLWKAETKDLDEDTCVESSVTPLDTNCLPSPTKMPGAVQQFTTLIRRQISNDFRDLPTLLIHGAEACLMSMTIGFLYFGHGSIQLSFMDTAALLFMIGALIPFNVILDVISKCYSERAMLYYELEDGLYTTGPYFFAKILGELPEHCAYIIIYGMPTYWLANLRPGLQPFLLHFLLVWLVVFCCRIMALAAAALLPTFHMASFFSNALYNSFYLAGGFMINLSSLWTVPAWISKVSFLRWCFEGLMKIQFSRRTYKMPLGNLTIAVSGDKILSVMELDSYPLYAIYLIVIGLSGGFMVLYYVSLRFIKQKPSQDW
notes: as for B1

Substrate in the series: Nc1ncnc2c1ncn2[C@@H]1O[C@H](COP(=O)(O)OP(=O)(O)OP(=O)(O)O)[C@@H](O)[C@H]1O
The experiment in a line: colorimetric bismuth citrate phosphate-release ATPase assay. In kind it is biochemical, Homo sapiens. The note with it: E. coli polar lipids, 1.5% sodium cholate, 4.1 mM CHS, Mg2+, 0.1% DDM, pH 7.5, 37 °C. The text has this:
colorimetric bismuth citrate phosphate-release ATPase assay on ABCG5/G8
With B1, the Km stood at 600 ± 70 µM, the Vmax is 0.677 µmol/min/mg, the kcat is 1.69 ± 0.06 s⁻¹ and the kcat/Km amounted to 2800 M⁻¹ s⁻¹.
With B2, the Km was determined as 510 ± 50 µM, the Vmax was determined as 0.167 µmol/min/mg, the kcat stood at 0.41 s⁻¹ and the kcat/Km worked out at 820 M⁻¹ s⁻¹.
Regarding B3, the Km turned out to be 420 ± 40 µM, the Vmax turned out to be 0.151 µmol/min/mg, the kcat is 0.38 ± 0.01 s⁻¹ and the kcat/Km was 900 M⁻¹ s⁻¹.
With B4, the Km turned out to be 580 ± 80 µM, the Vmax came out at 0.101 µmol/min/mg, the kcat is 0.25 ± 0.01 s⁻¹ and the kcat/Km was determined as 430 M⁻¹ s⁻¹.
